Data on three substances can be found in patent US20230144608.

The test system of series [1] is APAGLIVPYN (SEQ ID NO: 5).
In series [2] the test system is IVGRPRHQGV (SEQ ID NO: 7).

Sequence of MMP-8 (chain, as listed by the source): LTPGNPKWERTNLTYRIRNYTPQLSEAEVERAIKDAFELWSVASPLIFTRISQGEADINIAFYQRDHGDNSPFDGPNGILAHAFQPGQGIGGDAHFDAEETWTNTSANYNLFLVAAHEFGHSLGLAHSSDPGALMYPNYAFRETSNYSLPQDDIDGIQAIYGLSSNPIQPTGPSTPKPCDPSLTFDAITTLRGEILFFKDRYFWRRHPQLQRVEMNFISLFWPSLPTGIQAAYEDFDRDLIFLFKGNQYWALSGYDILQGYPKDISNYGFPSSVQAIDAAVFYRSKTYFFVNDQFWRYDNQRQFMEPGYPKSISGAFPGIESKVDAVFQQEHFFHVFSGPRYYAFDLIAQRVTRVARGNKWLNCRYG
Sequence of MMP-9 (chain, as listed by the source): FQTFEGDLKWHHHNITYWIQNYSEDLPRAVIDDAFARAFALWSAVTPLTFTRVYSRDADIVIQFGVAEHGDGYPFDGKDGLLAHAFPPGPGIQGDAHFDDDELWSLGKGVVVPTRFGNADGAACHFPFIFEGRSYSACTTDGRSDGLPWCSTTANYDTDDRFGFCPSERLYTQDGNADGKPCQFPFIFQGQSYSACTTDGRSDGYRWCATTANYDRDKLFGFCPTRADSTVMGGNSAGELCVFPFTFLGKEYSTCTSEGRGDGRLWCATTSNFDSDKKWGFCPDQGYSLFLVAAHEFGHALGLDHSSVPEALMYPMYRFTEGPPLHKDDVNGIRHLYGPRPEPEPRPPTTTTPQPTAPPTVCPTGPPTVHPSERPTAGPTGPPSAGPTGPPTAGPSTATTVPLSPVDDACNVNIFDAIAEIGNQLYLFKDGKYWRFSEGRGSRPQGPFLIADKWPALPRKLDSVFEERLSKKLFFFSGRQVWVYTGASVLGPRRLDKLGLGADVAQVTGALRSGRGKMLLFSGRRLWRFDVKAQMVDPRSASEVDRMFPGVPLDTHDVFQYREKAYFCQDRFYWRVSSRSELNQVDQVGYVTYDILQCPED
Sequence of MMP-10 (chain, as listed by the source): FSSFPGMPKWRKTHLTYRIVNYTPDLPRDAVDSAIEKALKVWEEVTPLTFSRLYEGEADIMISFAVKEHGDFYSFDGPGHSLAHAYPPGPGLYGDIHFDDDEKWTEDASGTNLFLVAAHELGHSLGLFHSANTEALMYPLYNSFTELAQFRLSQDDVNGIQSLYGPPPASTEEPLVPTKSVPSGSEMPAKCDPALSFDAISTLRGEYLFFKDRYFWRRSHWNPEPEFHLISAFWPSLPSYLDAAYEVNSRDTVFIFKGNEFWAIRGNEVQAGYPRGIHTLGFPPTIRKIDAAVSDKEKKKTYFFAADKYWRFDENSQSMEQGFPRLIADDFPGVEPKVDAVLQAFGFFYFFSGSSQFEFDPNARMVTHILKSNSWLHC

For MMP-9, the initial rate of cleavage by recombinant protease in series [1] was found to be 1.8 µM/h; in series [2] it was 0 µM/h; in the series with PANLVAPDP (SEQ ID NO: 6) it was 8.8 µM/h; in the series on PVSLRSGS (SEQ ID NO: 1), 6.5 µM/h; in the series on RPLALWRS (SEQ ID NO: 3), 0.2 µM/h; with RSKYLATA (SEQ ID NO: 8) it was 0 µM/h. Also, in the series on TQKPLGLS (SEQ ID NO: 4), the initial rate of cleavage by recombinant protease came to 0.3 µM/h.

On to MMP-8, for which the initial rate of cleavage by recombinant protease in series [1] was 0.5 µM/h; in series [2], 0 µM/h; in the series on PANLVAPDP (SEQ ID NO: 6), 7.2 µM/h; with PVSLRSGS (SEQ ID NO: 1), 0.1 µM/h; in the series with RPLALWRS (SEQ ID NO: 3), 0.2 µM/h; in the series on RSKYLATA (SEQ ID NO: 8), 0 µM/h. Further, the initial rate of cleavage by recombinant protease with TQKPLGLS (SEQ ID NO: 4) worked out at 0.1 µM/h.

As to MMP-10, the initial rate of cleavage by recombinant protease in series [1] came to 1.6 µM/h; in series [2] it was 0 µM/h; with PANLVAPDP (SEQ ID NO: 6) it was 1.8 µM/h; in the series on PVSLRSGS (SEQ ID NO: 1) it was 0 µM/h; in the series on RPLALWRS (SEQ ID NO: 3), 0 µM/h; in the series on RSKYLATA (SEQ ID NO: 8) it was 0 µM/h. Besides, in the series on TQKPLGLS (SEQ ID NO: 4), the initial rate of cleavage by recombinant protease was 0 µM/h.
